Experiment [1] relates to Streptococcus mutan. The experiment is described as follows: Challenge test of 1:100 diluted cleaners with organic load, Streptococcus mutan. The settings on record: cleaner diluted 1:100, organic load, 40±1° C.
Experiment [2] concerns Staphylococcus aureus (ATCC 6538). The experiment is described as follows: Challenge test of 1:100 diluted cleaners with organic load, Staphylococcus aureus. As to conditions: cleaner diluted 1:100, organic load, 40±1° C.
Experiment [3] relates to Pseudomonas aeruginosa ATCC15442. The experiment is described as follows: Challenge test of 1:100 diluted cleaners with organic load, Pseudomonas aeruginosa.

B1: Subtilisin Savinase 16L (protein, UniProt P29600 1-269, looked up)
Subtilisin Savinase: AQSVPWGISRVQAPAAHNRGLTGSGVKVAVLDTGISTHPDLNIRGGASFVPGEPSTQDGNGHGTHVAGTIAALNNSIGVLGVAPSAELYAVKVLGASGSGSVSSIAQGLEWAGNNGMHVANLSLGSPSPSATLEQAVNSATSRGVLVVAASGNSGAGSISYPARYANAMAVGATDQNNNRASFSQYGAGLDIVAPGVNVQSTYPGSTYASLNGTSMATPHVAGAAALVKQKNPSWSNVQIRNHLKNTATSLGSTNLYGSGLVNAEAATR
For the molecule B1, the “Concentration CFU/ml after time, 0 hrs” value in experiment [1] (0 hrs (initial)) amounted to 1.40E+07 CFU/ml; in experiment [2] (0 hrs (initial)), 4.21E+07 CFU/ml; in experiment [3] (0 hrs (initial), cleaner diluted 1:100, organic load, 40±1° C.), 2.94E+06 CFU/ml. Moreover, the “Concentration CFU/ml after time, 1 hr” value is 3.65E+07 CFU/ml in experiment [1] (1 hr); 1.58E+08 CFU/ml in experiment [2] (1 hr); 3.69E+08 CFU/ml in experiment [3] (1 hr, cleaner diluted 1:100, organic load, 40±1° C.). Further, the “Concentration CFU/ml after time, 4 hrs” value turned out to be 2.00E+06 CFU/ml in experiment [1] (4 hrs) and 1.26E+08 CFU/ml in experiment [2] (4 hrs). Also, the “Concentration CFU/ml after time, 6 hrs” value in experiment [1] (6 hrs) is 1.60E+06 CFU/ml; in experiment [2] (6 hrs), 2.00E+08 CFU/ml; in experiment [3] (6 hrs, cleaner diluted 1:100, organic load, 40±1° C.), 3.80E+09 CFU/ml. In addition, the “Concentration CFU/ml after time, 24 hrs” value in experiment [1] (24 hrs) is on record as 1.16E+06 CFU/ml; in experiment [2] (24 hrs), 7.94E+07 CFU/ml; in experiment [3] (24 hrs, cleaner diluted 1:100, organic load, 40±1° C.) it was 1.46E+11 CFU/ml. The “Concentration CFU/ml after time, 4 hr” value in experiment [3] (4 hr, cleaner diluted 1:100, organic load, 40±1° C.) stood at 2.06E+09 CFU/ml. Further, the “reduction of microorganisms by single component alone” value in experiment [3] (protease or phenoxyethanol alone at the concentrations of diluted A and B) is “Neither the protease nor the phenoxyethanol alone at these concentrations achieved a reduction”.

For the origin of these results see patent US20110123508A1, “INSTRUMENT CLEANER” (NOVAPHARM RESEARCH (AUSTRALIA) PTY. LTD., priority 2008, published 2011).
